In US20040037775:

Assays:
MTX-cIBL conjugate = test system: T1, MTX-cIBL conjugate
T1 sequence: QTSVSPSKVI

[1] = test system: T2, MTX-cIBR conjugate (methotrexate-cyclo-Leu Pro Arg Gly Gly Ser Val Leu Val Thr)
T2 sequence: LPRGGSVLVT

dihydrofolate reductase enzyme (DHFR)
Km relative to MTX (MTX-cIBL conjugate): approximately 4 and 15 fold times less than that of MTX, respectively
Km relative to MTX [1]: approximately 4 and 15 fold times less than that of MTX, respectively
